Target: vesicular stomatitis virus (VSV) large (L) protein (vesicular stomatitis virus (VSV) …, UniProt P03523 1-2109)
Assay: cryo-EM structure

Chain of vesicular stomatitis virus (VSV) large (L) protein (P03523 whole entry): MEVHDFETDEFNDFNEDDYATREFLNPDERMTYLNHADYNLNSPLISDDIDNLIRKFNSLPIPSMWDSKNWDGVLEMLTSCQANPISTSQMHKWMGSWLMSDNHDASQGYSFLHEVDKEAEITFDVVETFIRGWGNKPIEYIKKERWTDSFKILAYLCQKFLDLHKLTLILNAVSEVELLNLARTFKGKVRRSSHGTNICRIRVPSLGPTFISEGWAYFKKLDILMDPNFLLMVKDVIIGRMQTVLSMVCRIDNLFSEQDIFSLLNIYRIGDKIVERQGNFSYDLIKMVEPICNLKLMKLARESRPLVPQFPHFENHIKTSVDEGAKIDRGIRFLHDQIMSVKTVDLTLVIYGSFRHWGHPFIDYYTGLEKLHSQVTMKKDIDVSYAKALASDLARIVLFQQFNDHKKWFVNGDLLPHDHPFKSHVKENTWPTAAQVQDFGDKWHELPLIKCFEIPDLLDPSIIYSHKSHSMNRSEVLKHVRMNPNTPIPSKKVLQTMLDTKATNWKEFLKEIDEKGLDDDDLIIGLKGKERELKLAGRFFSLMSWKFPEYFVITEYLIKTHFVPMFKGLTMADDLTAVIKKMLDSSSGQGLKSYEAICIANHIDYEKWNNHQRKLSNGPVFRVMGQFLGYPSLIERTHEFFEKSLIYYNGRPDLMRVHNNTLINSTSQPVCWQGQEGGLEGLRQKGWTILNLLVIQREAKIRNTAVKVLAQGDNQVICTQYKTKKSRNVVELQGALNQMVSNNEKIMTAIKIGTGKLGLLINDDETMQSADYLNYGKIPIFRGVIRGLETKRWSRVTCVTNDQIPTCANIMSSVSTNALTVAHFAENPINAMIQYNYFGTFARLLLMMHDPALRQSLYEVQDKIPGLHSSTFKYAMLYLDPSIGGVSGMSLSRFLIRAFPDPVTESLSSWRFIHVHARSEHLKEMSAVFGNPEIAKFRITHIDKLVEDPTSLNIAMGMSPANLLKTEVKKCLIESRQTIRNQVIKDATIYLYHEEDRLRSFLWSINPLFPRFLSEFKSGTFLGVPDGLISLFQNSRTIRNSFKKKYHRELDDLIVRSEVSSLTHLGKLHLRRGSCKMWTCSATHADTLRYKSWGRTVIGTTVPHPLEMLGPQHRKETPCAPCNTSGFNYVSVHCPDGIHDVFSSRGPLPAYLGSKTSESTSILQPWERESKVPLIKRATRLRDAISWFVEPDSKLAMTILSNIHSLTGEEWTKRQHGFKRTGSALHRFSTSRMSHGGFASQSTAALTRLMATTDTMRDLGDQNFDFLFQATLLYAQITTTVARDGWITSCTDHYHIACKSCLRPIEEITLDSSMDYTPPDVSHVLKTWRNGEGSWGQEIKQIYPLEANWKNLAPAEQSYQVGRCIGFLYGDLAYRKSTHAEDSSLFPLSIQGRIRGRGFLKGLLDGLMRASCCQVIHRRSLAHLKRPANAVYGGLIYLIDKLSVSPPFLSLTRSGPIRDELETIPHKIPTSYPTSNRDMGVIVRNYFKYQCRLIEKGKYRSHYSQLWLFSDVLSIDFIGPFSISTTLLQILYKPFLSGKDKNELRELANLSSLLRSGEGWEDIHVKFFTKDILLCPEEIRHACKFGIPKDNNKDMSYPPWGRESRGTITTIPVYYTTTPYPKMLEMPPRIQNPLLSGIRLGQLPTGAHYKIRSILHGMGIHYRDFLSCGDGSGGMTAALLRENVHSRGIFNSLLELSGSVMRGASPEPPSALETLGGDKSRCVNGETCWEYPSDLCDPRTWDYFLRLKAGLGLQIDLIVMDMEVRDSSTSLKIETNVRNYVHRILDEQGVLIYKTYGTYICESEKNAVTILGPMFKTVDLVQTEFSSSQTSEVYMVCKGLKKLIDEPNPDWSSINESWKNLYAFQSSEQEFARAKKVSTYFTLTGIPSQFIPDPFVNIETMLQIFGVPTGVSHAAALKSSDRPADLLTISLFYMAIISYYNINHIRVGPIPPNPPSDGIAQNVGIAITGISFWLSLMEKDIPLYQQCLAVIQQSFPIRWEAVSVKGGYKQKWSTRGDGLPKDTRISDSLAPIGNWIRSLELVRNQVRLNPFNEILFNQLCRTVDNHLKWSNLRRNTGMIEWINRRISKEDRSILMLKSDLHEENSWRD

B1: VSV phosphoprotein (P) fragment, residues 35-106 (domain or fragment)
chain: SNYELFQEDGVEEHTKPSYFQAADDSDTESEPEIEDNQGLYAQDPEAEQVEGFIQGPLDDYADEEVDVVFTS
B1: binds.
